For assay [1], the target named is MsSepF_(core) (Methanobrevibacter smithii SepF, C-terminal FtsZ-binding core, amino acids 54 to 149) (Methanobrevibacter smithii).
Assay [2] has the same target. Description: thermal shift assay.

One may read the stoichiometry N as the number of molecules, sites or subunits per partner or assembly.

“MsSepF_(core) (Methanobrevibacter smithii SepF, C-terminal FtsZ-binding core, amino acids 54 to 149) (domain or fragment)” showed a stoichiometry N in assay [1] of 2.

B1: FtsZCTD peptide (C-terminal domain of M. smithii FtsZ) (peptide)
peptide: NEDQLDDFIDGIF
On to B1, for which the melting temperature of MsSepFcore upon addition of MsFtsZCTD (70.6 °C without) in assay [2] was 82.3 °C.

Source of the values: paper doi:10.1101/2020.10.06.328377.
